Starred links: 1 amine or outer side, 2 acyl side, 3 side chain; linkers in the order of their positions; H or OH if unused. Non-standard residues stand in square brackets, D forms with d. Residues, ends and D or L forms follow the SMILES beside them. Groups on a side chain read outwards from the residue. No end group written: not given here. *: point of attachment. C20 diacid = O=C(O)CCCCCCCCCCCCCCCCCCC(=O)*; C18 diacid = O=C(O)CCCCCCCCCCCCCCCCC(=O)*; γGlu = O=C(O)[C@H](CCC(=O)[*:2])N[*:1]; Palmitoyl = CCCCCCCCCCCCCCCC(=O)*; AEEA = NCCOCCOCC(=O)O; Aib = CC(C)(N)C(=O)O
T1: human CRF2α receptor (Homo sapiens, UniProt Q13324)
T1 construct: expressed in transfected cells; host or cells: TeloHEAC
T1 sequence (Q13324 1-411): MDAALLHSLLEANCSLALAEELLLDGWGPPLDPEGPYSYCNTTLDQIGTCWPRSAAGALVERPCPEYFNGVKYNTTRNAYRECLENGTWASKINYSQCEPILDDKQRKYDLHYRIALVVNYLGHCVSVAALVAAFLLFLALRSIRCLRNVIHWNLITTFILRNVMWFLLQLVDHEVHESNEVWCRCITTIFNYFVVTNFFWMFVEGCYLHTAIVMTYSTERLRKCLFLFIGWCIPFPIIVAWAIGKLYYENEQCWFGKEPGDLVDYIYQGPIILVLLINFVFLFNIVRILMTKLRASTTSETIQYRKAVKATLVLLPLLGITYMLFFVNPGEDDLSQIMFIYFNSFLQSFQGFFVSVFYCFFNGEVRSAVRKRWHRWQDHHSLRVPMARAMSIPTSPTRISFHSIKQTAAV

T2: CRF1R receptor (Homo sapiens, UniProt P34998)
T2 construct: host or cells: CHO-K1 clone 2
T2 sequence (P34998 24-415): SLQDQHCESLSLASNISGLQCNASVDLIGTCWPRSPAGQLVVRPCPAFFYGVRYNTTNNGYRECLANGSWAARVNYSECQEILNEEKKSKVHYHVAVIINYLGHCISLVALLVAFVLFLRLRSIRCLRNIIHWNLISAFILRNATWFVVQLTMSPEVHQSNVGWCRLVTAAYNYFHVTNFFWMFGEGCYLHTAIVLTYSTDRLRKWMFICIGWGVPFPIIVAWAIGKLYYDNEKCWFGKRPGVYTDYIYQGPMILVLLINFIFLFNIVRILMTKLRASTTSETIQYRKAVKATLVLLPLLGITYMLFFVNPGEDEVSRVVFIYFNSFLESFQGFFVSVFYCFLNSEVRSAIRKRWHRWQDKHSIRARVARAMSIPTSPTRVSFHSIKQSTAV

T3: anti-target CRF1R receptor (UniProt P34998 24-415, limits assumed)
T3 sequence (looked up): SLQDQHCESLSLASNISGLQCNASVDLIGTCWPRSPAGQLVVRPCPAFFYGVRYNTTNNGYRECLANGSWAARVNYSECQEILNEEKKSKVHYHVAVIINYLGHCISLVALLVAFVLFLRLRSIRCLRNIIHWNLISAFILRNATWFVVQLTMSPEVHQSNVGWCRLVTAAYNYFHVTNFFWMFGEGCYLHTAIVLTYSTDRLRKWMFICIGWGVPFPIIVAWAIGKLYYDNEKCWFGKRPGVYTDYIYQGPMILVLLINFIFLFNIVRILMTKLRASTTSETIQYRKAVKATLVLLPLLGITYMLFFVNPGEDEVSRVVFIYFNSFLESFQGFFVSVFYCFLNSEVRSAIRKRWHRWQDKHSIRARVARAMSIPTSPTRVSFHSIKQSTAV


How the values were obtained:
human CRF2α receptor = target: T1, human CRF2α receptor; assay: cAMP agonism at human CRF2 α receptor in TeloHEAC cells (Example 7); type: cell-based; conditions: cAMP HTRF, TeloHEAC cells stably expressing human CRF2 α, 0% HSA; read-out: EC50 [nM], 0% HSA
Summary of the method: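 Percent activation was referenced to 1000 nM UCN2 (100%), and EC50 values taken as concentrations giving half of maximal response. The read-out was a homogeneous time-resolved fluorescence cAMP kit, fluorescence ratio 665/620 nm. Thawed cells (2000/well) saw compound for 30 min at RT in buffer with 2 mM IBMX and 0%/0.1% HSA.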

CRF1R receptor = target: T2, CRF1R receptor; assay: cAMP activity at anti-target CRF1R, CRF1R-overexpression CHO cell line (Example 9); type: cell-based; conditions: CRF1R-overexpression CHO cell line
Method: Cells were grown in a T175 culture flask placed at 37° C. to near confluence in medium (DMEM/10% FBS) and collected in 2 ml vials in cell culture medium containing 10% DMSO in a concentration of 10-50 million cells/ml. Each vial contained 1.8 ml cells. The vials were slowly frozen to −80° C. in isopropanol and then transferred in liquid nitrogen for storage. Prior to use, frozen cells were thawed quickly at 37° C. and washed (5 min at 900 rpm) with 20 ml cell buffer (1×HBSS; 20 mM HEPES; 0% or 0.1% HSA). Cells were resuspended in assay buffer (cell buffer plus 2 mM IBMX) and adjusted to a cell density of 1 million cells/ml. For measurement, 5 μl cells (final […]) and 5 μL of test compound were added to a 384-well plate, followed by incubation for 30 minutes at room temperature.
The CAMP content of cells was determined using a kit from Cisbio Corp. (cat. no. 62AM4PEC) based on HTRF (Homogenous Time Resolved Fluorescence). […] The percent activity value (E %) was calculated by setting 1000 nM of urocortin 2 (UCN2) as 100%.
A CRF1R-overexpression CHO cell line was used in this study.

[1] = target: T3, anti-target CRF1R receptor; assay: cell-based or functional assay

Row | EC50 (human CRF2α receptor) | EC50 (CRF1R receptor; 0% HSA) | Emax (CRF1R receptor; read-out: Emax (%)) | EC50[nM] 0% HSA (cAMP, CRF1R-overexpression CHO cells) [1] | Emax (%) (cAMP, CRF1R-overexpression CHO cells) [1] | Molecule
1 | 0.09 nM | > 1000 nM | 41.8% |  |  | CCCCCCCCCCCCCCCC(=O)N[C@@H](CCC(=O)NCCCC[C@H](NC(=O)[C@@H](NC(=O)[C@H](CCCCN)NC(=O)[C@@H](NC(=O)[C@@H]1CCCN1C(=O)[C@@H](NC(=O)[C@H](CC(=O)O)NC(=O)[C@H](CC(C)C)NC(=O)[C@H](CO)NC(=O)[C@H](CC(C)C)NC(=O)[C@@H](NC(=O)[C@@H](N)Cc1ccccc1)[C@@H](C)O)C(C)C)[C@@H](C)O)[C@@H](C)CC)C(=O)N[C@@H](CCC(N)=O)C(=O)N[C@@H](CCCCN)C(=O)N[C@@H](CC(C)C)C(=O)N[C@@H](CC(C)C)C(=O)N[C@@H](CCCCN)C(=O)N[C@@H](CCC(N)=O)C(=O)N[C@@H](CCC(=O)O)C(=O)N[C@@H](CCCCN)C(=O)N[C@@H](CCC(N)=O)C(=O)N[C@@H](CCCNC(=N)N)C(=O)N[C@@H](CCCCN)C(=O)N[C@@H](CCC(N)=O)C(=O)N[C@@H](CCCCN)C(=O)N[C@@H](CCC(N)=O)C(=O)N[C@@H](CCC(N)=O)C(=O)N[C@@H](C)C(=O)N[C@@H](CCCCN)C(=O)N[C@H](C(=O)N[C@@H](CC(N)=O)C(=O)N[C@@H](C)C(=O)N[C@@H](CCCCN)C(=O)N[C@H](C(=O)N[C@@H](CC(C)C)C(=O)N[C@@H](C)C(=O)N[C@@H](CCCNC(=N)N)C(=O)N[C@H](C(N)=O)C(C)C)[C@@H](C)CC)[C@@H](C)O)C(=O)O [compound 12] (H-FTLSLDVPTKIK([γGlu-Palmitoyl])QKLLKQEKQRKQKQQAKTNAKILARV-NH2)
2 |  |  |  | > 1000 nM | 7.54% | IVLSLD[dV]PIKLK([AEEA-AEEA-γGlu-γGlu-C18 diacid])QILLKQERQK[Aib]QREQAEKNKQILAQV-NH2 (N-terminus assumed; SMILES CC[C@H](C)[C@H](N)C(=O)N[C@H](C(=O)N[C@@H](CC(C)C)C(=O)N[C@@H](CO)C(=O)N[C@@H](CC(C)C)C(=O)N[C@@H](CC(=O)O)C(=O)N[C@@H](C(=O)N1CCC[C@H]1C(=O)N[C@H](C(=O)N[C@@H](CCCCN)C(=O)N[C@@H](CC(C)C)C(=O)N[C@@H](CCCCNC(=O)COCCOCCNC(=O)COCCOCCNC(=O)CC[C@H](NC(=O)CC[C@H](NC(=O)CCCCCCCCCCCCCCCCC(=O)O)C(=O)O)C(=O)O)C(=O)N[C@@H](CCC(N)=O)C(=O)N[C@H](C(=O)N[C@@H](CC(C)C)C(=O)N[C@@H](CC(C)C)C(=O)N[C@@H](CCCCN)C(=O)N[C@@H](CCC(N)=O)C(=O)N[C@@H](CCC(=O)O)C(=O)N[C@@H](CCCNC(=N)N)C(=O)N[C@@H](CCC(N)=O)C(=O)N[C@@H](CCCCN)C(=O)NC(C)(C)C(=O)N[C@@H](CCC(N)=O)C(=O)N[C@@H](CCCNC(=N)N)C(=O)N[C@@H](CCC(=O)O)C(=O)N[C@@H](CCC(N)=O)C(=O)N[C@@H](C)C(=O)N[C@@H](CCC(=O)O)C(=O)N[C@@H](CCCCN)C(=O)N[C@@H](CC(N)=O)C(=O)N[C@@H](CCCCN)C(=O)N[C@@H](CCC(N)=O)C(=O)N[C@H](C(=O)N[C@@H](CC(C)C)C(=O)N[C@@H](C)C(=O)N[C@@H](CCC(N)=O)C(=O)N[C@H](C(N)=O)C(C)C)[C@@H](C)CC)[C@@H](C)CC)[C@@H](C)CC)C(C)C)C(C)C) [peptide of SEQ ID NO: 171]
3 |  |  |  | > 1000 nM | 25.6% | IVLSLD[dV]PIKLK([AEEA-AEEA-γGlu-γGlu-C20 diacid])QILLKQERQK[Aib]QREQAEKNKQILAQV-NH2 (N-terminus assumed; SMILES CC[C@H](C)[C@H](N)C(=O)N[C@H](C(=O)N[C@@H](CC(C)C)C(=O)N[C@@H](CO)C(=O)N[C@@H](CC(C)C)C(=O)N[C@@H](CC(=O)O)C(=O)N[C@@H](C(=O)N1CCC[C@H]1C(=O)N[C@H](C(=O)N[C@@H](CCCCN)C(=O)N[C@@H](CC(C)C)C(=O)N[C@@H](CCCCNC(=O)COCCOCCNC(=O)COCCOCCNC(=O)CC[C@H](NC(=O)CC[C@H](NC(=O)CCCCCCCCCCCCCCCCCCC(=O)O)C(=O)O)C(=O)O)C(=O)N[C@@H](CCC(N)=O)C(=O)N[C@H](C(=O)N[C@@H](CC(C)C)C(=O)N[C@@H](CC(C)C)C(=O)N[C@@H](CCCCN)C(=O)N[C@@H](CCC(N)=O)C(=O)N[C@@H](CCC(=O)O)C(=O)N[C@@H](CCCNC(=N)N)C(=O)N[C@@H](CCC(N)=O)C(=O)N[C@@H](CCCCN)C(=O)NC(C)(C)C(=O)N[C@@H](CCC(N)=O)C(=O)N[C@@H](CCCNC(=N)N)C(=O)N[C@@H](CCC(=O)O)C(=O)N[C@@H](CCC(N)=O)C(=O)N[C@@H](C)C(=O)N[C@@H](CCC(=O)O)C(=O)N[C@@H](CCCCN)C(=O)N[C@@H](CC(N)=O)C(=O)N[C@@H](CCCCN)C(=O)N[C@@H](CCC(N)=O)C(=O)N[C@H](C(=O)N[C@@H](CC(C)C)C(=O)N[C@@H](C)C(=O)N[C@@H](CCC(N)=O)C(=O)N[C@H](C(N)=O)C(C)C)[C@@H](C)CC)[C@@H](C)CC)[C@@H](C)CC)C(C)C)C(C)C) [peptide of SEQ ID NO: 172]
